From patent publication US8124349B2, “Toll-like receptor assays” (University of Massachusetts, priority 2003, dated 2012)

What was measured:
TLR4:Fc = biological target: T1, TLR4:Fc (Homo sapiens, UniProt O00206); test: Cell-free ELISA: plated TLR4:Fc probed with biotinylated ligand; assay type: binding; conditions: FIG. 8B
T1 construct: the TLR2:Fc fusion protein and the related TLR4:Fc, were plated on plastic
Description: (§1) Briefly, various TLR2 ligands were plated on plastic in carbonate buffer pH 9 for two hours at different concentrations (X axis) in duplicate points. After washing (PBS-0.05% Tween 20), a fusion protein consisting of the extracellular domain of TLR2 and the mouse Fc portion of immunoglobulin G, isotype 2a (TLR2:Fc, see U.S. Provisional Patent Application Ser. No. 60/598,774), was added at 1 mg/ml (0.1 mg/well).
(§2) In a similar setting, the TLR2:Fc fusion protein and the related TLR4:Fc, were plated on plastic and the biotinylated ligand used to probe the wells. The TLR2 bound biotinylated protein was reveled using a HRP conjugated anti biotin polyclonal antiserum (NEB).

TLR2:Fc = biological target: T2, TLR2:Fc (Homo sapiens, UniProt O60603); test: Cell-free ELISA: plated TLR2:Fc probed with biotinylated ligand; assay type: binding; conditions: FIG. 8B
T2 construct: a fusion protein consisting of the extracellular domain of TLR2 and the mouse Fc portion of immunoglobulin G, isotype 2a
T2 sequence (O60603 21-588 limits assumed, species assumed): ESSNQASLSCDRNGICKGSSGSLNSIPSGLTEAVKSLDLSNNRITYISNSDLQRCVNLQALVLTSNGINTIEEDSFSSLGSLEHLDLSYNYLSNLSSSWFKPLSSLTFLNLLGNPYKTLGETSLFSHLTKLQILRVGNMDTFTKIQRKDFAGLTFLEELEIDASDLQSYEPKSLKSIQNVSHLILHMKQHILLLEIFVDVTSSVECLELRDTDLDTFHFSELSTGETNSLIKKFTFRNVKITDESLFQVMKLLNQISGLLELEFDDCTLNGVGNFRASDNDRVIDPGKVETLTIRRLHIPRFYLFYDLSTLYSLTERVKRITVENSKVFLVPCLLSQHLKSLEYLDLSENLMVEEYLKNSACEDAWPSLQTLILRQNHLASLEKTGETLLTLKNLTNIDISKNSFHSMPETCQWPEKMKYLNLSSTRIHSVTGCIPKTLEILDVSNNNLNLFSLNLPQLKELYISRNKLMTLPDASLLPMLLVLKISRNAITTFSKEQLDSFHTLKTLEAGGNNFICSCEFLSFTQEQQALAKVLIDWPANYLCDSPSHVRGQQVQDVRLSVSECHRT
Description: as §1, §2

TLR9^YFP = biological target: T3, TLR9^YFP (Homo sapiens, UniProt Q9NR96); test: Competition plate assay: TLR9^YFP binding to plate-bound biotinylated CpG-DNA 2006 in presence of competitor; conditions: plates coated with 0.3 μM biotin-CpG-DNA 2006; competitor added to TLR9^YFP lysate; FIGS. 5A-D
T3 construct: expressed in transfected cells; host or cells: HEK cells stably expressing TLR9^YFP, used as cellular lysate
T3 sequence (Q9NR96 26-1032): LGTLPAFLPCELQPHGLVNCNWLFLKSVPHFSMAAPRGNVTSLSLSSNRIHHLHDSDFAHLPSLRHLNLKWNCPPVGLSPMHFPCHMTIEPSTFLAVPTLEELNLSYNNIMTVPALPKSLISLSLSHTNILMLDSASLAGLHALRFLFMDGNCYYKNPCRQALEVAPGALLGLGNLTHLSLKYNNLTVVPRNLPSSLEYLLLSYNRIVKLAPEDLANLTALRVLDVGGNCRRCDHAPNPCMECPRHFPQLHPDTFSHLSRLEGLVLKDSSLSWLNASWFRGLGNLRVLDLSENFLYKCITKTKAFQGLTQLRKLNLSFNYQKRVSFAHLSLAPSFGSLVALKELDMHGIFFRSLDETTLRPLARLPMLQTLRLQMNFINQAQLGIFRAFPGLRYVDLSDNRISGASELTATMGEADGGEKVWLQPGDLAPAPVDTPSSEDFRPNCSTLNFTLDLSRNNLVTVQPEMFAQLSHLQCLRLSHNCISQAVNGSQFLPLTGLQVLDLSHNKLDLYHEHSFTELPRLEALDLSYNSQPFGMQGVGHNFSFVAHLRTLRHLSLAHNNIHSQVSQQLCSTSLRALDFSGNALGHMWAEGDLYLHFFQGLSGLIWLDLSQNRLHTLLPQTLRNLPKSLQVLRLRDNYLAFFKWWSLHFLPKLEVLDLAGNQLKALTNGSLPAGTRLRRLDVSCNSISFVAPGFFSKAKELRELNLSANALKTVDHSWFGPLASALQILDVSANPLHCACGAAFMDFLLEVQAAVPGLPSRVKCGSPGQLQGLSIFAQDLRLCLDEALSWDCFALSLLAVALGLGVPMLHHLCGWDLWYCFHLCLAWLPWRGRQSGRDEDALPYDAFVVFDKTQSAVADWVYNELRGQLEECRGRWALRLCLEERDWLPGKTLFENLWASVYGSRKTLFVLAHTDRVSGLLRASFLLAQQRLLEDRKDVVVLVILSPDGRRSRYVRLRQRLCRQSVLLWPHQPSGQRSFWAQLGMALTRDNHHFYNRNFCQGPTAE
Description: This assay can be adapted for use in drug-screening applications. For example, the interaction of TLR9 with CpG-DNA reflects a clinically important receptor/ligand interaction since a variety of autoimmune diseases are thought to be based on the interaction of DNA-antibody complexes with this receptor (Leadbetter et al., 2002, Nature 416:603-607). Thus, antagonists for this interaction are useful for the development of novel anti-inflammatory drugs. To examine the application of this assay to the identification of such compounds (e.g., compounds that increase or decrease the interaction) and so are potential drugs for ameliorating TLR-related disorders, a competition assay was developed that was based on the basic plate assay described above. The competition assay was performed essentially as described above for the plate assay. In addition, non-biotinylated CpG-DNA (“cold ligand”) or other compounds that interfere with TLR9 signaling (R848 or bacterial DNA) were added to the TLR9-containing lysates. The ability of the various compounds to inhibit binding of TLR9^YFP to the plate-bound biotinylated CpG-DNA was then evaluated.
In the assay, NeutrAvidin™ plates (Pierce) were coated with 0.3 μM biotin-CpG-DNA 2006 as described above. […]

TLR9 = biological target: T4, TLR9 (Homo sapiens, UniProt Q9NR96); test: TLR9 signaling in TLR9-expressing HEK cells; assay type: cell-based
T4 construct: expressed in transfected cells; host or cells: HEK293 cells stably expressing TLR^FP
T4 sequence (Q9NR96 26-1032): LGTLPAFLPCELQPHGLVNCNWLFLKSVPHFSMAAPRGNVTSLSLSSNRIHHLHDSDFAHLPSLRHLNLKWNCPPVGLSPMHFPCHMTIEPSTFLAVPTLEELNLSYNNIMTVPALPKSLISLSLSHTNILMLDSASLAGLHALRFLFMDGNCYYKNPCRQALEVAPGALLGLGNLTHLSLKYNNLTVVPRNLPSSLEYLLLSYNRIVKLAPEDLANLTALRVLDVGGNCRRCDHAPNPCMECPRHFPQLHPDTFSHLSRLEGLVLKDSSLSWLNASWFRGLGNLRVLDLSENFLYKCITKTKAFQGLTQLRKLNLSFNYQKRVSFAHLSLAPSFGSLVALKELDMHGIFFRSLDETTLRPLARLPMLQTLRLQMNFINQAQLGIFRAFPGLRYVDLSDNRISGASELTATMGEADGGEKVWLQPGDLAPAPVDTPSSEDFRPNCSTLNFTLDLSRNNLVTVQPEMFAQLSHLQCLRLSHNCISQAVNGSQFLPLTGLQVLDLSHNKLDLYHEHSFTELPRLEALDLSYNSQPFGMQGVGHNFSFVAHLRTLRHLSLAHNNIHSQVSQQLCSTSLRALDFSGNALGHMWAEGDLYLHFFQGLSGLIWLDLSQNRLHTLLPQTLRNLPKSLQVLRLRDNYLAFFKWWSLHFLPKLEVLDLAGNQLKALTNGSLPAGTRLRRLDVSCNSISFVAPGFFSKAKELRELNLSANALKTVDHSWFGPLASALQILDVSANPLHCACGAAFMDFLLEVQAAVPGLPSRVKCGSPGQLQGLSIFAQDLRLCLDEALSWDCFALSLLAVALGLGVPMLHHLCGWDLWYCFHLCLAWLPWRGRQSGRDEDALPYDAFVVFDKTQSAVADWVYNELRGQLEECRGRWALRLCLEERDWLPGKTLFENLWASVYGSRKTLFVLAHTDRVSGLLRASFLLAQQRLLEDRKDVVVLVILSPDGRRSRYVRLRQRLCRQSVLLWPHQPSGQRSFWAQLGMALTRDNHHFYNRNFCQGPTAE
Description: Cellular activation was assessed by NF-κB-luciferase reporter assay. Briefly, HEK293 cells that stably express a TLR^FP or empty vector (pcDNA) were seeded into 96-well tissue culture plates at a density of 2×10^4 cells/well. The following day, cells were transiently transfected with luciferase reporter genes using Genejuice (Novagen) per the manufacturer's recommendations. In order to assess NF-κB activation, an NF-κB-luciferase reporter gene consisting of an artificial promoter composed of a multimer of five NF-κB sites driving the firefly luciferase gene, was co-transfected with a constitutively active Renilla-luciferase reporter gene (Promega, Madison, Wis.).

TLR2 = biological target: T5, TLR2 (Homo sapiens, UniProt O60603); test: NF-κB luciferase reporter assay in 293 cells stably expressing TLR2; assay type: cell-based; conditions: 0.01-10 μg/ml stimulant; FIG. 7B
T5 construct: expressed in transfected cells; host or cells: 293 (HEK 293) cells stably expressing TLR2
T5 sequence (O60603 21-784, species assumed): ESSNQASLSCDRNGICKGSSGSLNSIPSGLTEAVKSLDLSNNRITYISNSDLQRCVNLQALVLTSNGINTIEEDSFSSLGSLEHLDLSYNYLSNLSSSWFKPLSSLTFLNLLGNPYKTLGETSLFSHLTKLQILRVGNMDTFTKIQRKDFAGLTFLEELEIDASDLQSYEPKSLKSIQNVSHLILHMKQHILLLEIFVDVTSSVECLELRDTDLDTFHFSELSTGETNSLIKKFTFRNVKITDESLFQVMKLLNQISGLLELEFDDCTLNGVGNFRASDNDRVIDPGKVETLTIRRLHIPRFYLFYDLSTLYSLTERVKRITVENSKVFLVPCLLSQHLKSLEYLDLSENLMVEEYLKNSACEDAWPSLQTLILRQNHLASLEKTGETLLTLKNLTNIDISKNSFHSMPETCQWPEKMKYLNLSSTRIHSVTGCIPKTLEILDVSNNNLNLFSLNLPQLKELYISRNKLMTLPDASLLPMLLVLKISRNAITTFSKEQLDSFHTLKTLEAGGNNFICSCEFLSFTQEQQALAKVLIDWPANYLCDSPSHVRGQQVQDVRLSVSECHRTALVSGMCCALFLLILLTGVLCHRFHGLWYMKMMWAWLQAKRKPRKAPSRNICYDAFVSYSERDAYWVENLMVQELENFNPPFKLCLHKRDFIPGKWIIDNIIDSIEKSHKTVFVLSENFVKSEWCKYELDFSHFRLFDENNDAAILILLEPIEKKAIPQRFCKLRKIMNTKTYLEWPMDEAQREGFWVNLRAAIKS
T5 sequence (Q15399 25-786 partner, species assumed): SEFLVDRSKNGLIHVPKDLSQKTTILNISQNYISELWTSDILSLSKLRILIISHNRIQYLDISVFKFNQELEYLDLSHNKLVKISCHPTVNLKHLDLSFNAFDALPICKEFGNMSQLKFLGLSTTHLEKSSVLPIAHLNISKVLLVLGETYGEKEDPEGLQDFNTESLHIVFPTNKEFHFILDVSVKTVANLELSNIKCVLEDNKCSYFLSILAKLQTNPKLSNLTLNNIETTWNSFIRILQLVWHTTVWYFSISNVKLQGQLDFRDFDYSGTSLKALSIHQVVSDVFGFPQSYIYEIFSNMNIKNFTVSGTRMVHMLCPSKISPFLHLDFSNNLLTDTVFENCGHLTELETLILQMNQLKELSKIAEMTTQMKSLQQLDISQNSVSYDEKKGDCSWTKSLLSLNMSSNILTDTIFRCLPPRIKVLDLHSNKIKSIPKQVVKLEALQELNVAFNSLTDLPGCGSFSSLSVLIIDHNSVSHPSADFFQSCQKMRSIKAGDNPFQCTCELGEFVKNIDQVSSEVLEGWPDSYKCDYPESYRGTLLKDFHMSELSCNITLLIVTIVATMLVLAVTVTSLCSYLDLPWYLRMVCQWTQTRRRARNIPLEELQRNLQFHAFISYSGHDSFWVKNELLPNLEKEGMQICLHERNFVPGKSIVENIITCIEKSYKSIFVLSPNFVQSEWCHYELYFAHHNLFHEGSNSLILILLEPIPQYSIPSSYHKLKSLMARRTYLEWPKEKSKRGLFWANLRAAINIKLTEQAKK
Description: 293 cells stably expressing TLR4/MD-2 (as described in Visintin et al., 2003, J. Biol. Chem., 278(48):48313-48320) or TLR2 were stimulated using lipopolysaccharide (LPS) or PorinB, and the extent of activation measured as the activation of a NF-κB-dependent reporter gene encoding for the Luciferase gene. To measure NF-κB activation, 2 μg of a reporter plasmid in which NF-κB drives the synthesis of luciferase was transiently cotransfected with 5 μg of the indicated cDNA by lipofection (GeneJuice) in 10-cm tissue culture dishes following the manufacturer's recommendations. The following morning, cells were seeded at a density of 50,000 cells/well in a 96-well plate, allowed to recover for 5 hours, and stimulated as indicated between 6 and 18 hours. Luciferase activity was measured with a plate reader luminometer (Victor^2, PerkinElmer Life Sciences) using chemicals provided with the luciferase assay system (Promega, Madison, Wis.). All data are presented as the means ±S.D. of triplicate well readings, normalized to a value of 1.0 in comparison with an unstimulated negative control.

T1 sequence (O00206 24-631 limits assumed, species assumed): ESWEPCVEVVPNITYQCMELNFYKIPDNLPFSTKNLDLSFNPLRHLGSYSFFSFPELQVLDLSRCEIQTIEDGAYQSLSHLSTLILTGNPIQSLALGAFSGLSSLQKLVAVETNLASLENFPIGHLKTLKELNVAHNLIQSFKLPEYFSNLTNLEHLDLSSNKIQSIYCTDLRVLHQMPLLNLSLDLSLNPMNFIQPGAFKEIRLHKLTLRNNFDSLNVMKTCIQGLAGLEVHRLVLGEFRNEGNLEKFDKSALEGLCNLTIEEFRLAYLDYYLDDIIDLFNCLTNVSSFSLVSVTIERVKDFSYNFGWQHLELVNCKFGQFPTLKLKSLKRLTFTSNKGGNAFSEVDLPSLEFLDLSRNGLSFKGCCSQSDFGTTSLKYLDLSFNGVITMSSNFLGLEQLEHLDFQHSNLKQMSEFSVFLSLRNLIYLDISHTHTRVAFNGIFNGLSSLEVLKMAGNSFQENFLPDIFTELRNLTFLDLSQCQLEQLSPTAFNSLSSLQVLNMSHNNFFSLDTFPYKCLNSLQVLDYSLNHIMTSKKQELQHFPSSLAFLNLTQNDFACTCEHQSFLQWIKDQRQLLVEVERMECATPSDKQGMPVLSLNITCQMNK

## bacterial alkaline phosphatase (BAP): bacterial alkaline phosphatase
TLR4:Fc
  Binding of biotinylated ligand to plated TLR4:Fc: not to TLR4:Fc
TLR2:Fc
  Binding of biotinylated ligand to plated TLR2:Fc: bind to TLR2:Fc

## CCOCc1nc2c(N)nc3ccccc3c2n1CC(C)(C)O [R848]
TLR9^YFP
  Inhibition of TLR9 binding to biotinylated immobilized CpG-DNA: did not interfere with the binding of TLR9 to CpG-DNA
TLR9
  Inhibition of TLR9 signaling: inhibited TLR9 signaling in a dose dependent manner

B1: PorinB: the protein PorinB from Neisseria meningitidis (protein)
chain: DVTLYGTIKAGVETSRSVFHQNGQVTEVTTATGIVDLGSKIGFKGQEDLGNGLKAIWQVEQKASIAGTDSGWGNRQSFIGLKGGFGKLRVGRLNSVLKDTGDINPWDSKSDYLGVNKIAEPEARLISVRYDSPEFAGLSGSVQYALNDNAGRHNSESYHAGFNYKNGGFFVQYGGAYKRHHQVQEGLNIEKYQIHRLVSGYDNDALYASVAVQQQDAKLTDASNSHNSQTEVAATLAYRFGNVTPRVSYAHGFKGLVDDADIGNEYDQVVVGAEYDFSKRTSALVSAGWLQEGKGENKFVATAGGVGLRHKF
TLR4:Fc
  Binding of biotinylated ligand to plated TLR4:Fc: did not
TLR2
  NF-κB reporter activation in TLR2 expressing cells: efficiently activates
TLR2:Fc
  Binding of biotinylated ligand to plated TLR2:Fc: specifically bound
